The text below walks through data of patent publication US20060188874A1, “Methods and compositions for colorimetrically assessing peptide characteristics” (priority 2004, published 2006).

Holding throughout (format): physicochemical
Series [1] can be described thus: Dissolution test of peptide sample (pH raised stepwise until dissolved). The protocol: For example, a simple dissolution test can be used to evaluate the solubility characteristics of a peptide sample. The test is conveniently carried out at a temperature in the range of from about 20° C. to about 27° C., preferably about 25° C. From about 0.1 to about 0.3 grams of peptide is combined with about 1 to about 3 ml of an aqueous medium. The medium may be deionized water. In the case of T-20 or T-1249, these peptides are mildly acetic. Consequently, the medium optionally may include some initial amount base, e.g., about 17 mM Na2CO3 or the like, to provide a suitable initial pH. […] The mixture is rapidly stirred for 5 to 10 minutes between additional increments. Solids adhering to the sides of the testing vessel should be re-suspended. Rapid mixing should be maintained throughout. Results include observations regarding the clarity of the mixture, time required for dissolution, concentration and amount of caustic used, final pH upon dissolution (if this occurs below pH 9), and the like.
For purposes of the invention, peptides such as T-20, T-1249, and GLP-1, as well as counterparts of these, may be deemed to be in a more desired, deaggregated form if dissolution in accordance with this test occurs at a pH of less than about 8, preferably less than about 7.5. If dissolution occurs at a pH of greater than about 7.5, more preferably greater than about 8, the peptide is deemed to be in a less desired aggregated form. This helps to ensure the practicality of handling the peptide during subsequent processing and handling.

Series [2] can be described thus: Molar mass by MALS light scattering (apparent MW as measure of aggregation). To be noted: solution sample taken during acid addition at pH 9.3, re-work of Sample A. An excerpt: Molecular weight analysis is also a useful technique to assess beta sheet structure in a peptide. Depending upon the technique and equipment used, the molecular weight may be the weight average molecular weight, number average molecular weight, actual molecular weight, or average molecular weight. Assessment of average molecular weight or weight average molecular weight are preferred. A peptide formed from a known sequence and number of amino acids generally has a theoretical molecular weight that is known with a fair degree of certainty. The theoretical molecular weight can be calculated from the theoretical peptide structure. The molecular weight of a peptide sample can be determined through any suitable technique such as light scattering analysis. However, the amount of beta sheet structure of a sample impacts its measured molecular weight. Generally, the measured molecular weight tends to be higher with increasing amounts of beta sheet structure being present.
As an example, the T-1249 peptide has a theoretical molecular weight of about 5000. The measured, apparent molecular weight of actual samples of the peptide may range from 6000 to 100,000 or even more. […]
Sample A was a portion of a highly aggregated batch of T-1249 peptide having an average molecular weight of 98,890±6660. The molar mass was determined using MALS light scattering. […]

Series [3] in a line: Congo Red colorimetric analysis of beta sheet aggregation. To be noted: aggregated T-1249 peptide added to initially orange red solution. The protocol: The following procedure is used to prepare a Congo Red solution suitable for assessing, qualitatively and/or quantitatively, via colorimetric analysis the solubility and formulating characteristics of a peptide sample. A 50 mM solution of sodium phosphate buffer, pH 7.2 is prepared and filtered through a 0.22 μm Polyethersulfone membrane. 25 μM of Congo Red is dissolved in the sodium phosphate buffer with sonication. The mixture also included about 1% by volume ethanol (This can be 95% ethanol or absolute ethanol.) The solution is orange-colored.
Sonication is used until the peptide is dissolved
The peptide/Congo Red solution is incubated at ambient temperature for 3-4 hours.
According to a preferred procedure, a Hewlett Packard 8453 spectrophotometer is used to obtain a blank, reference spectrum of the 50 mM solution of sodium phosphate buffer prepared in Example 6. Using the same instrument, a spectrum for the 25 μM Congo Red solution is measured over a suitable range, e.g., from about 300 nm to about 650 nm. […] If this difference is greater than an empirically determined quality control specification, the sample can be deemed to fail. […]

The mark [4] stands for this setting: precipitated with 18% by volume acetonitrile.

As for “Acetyl-WQEWEQKITALLEQAQIQQE KNEYELQKLDKWASLWEWF-NH2 (Ac-WQEWEQKITALLEQAQIQQEKNEYELQKLDKWASLWEWF-NH2) [Sample T-1249, ID NO; 20]”, the dissolution behaviour entry in series [1] (precipitated with 14% by volume acetonitrile) is on record as “dissolved to some degree at a pH of 6.95 but not completely”. Also, in series [1] (setting [4]), the dissolution time worked out at 1 h, the “final pH at dissolution” value is 6.69 and the “turbidity appearance at dissolution” value is “very faint turbidity”. Also, the “dissolution pH” value in series [1] (precipitated with 20 to 22 volume percent acetonitrile) is reported as “around 9”. For the same substance, the dissolution behaviour result in series [1] (precipitated with no co-solvent, after 14 to 18 hours, pH of 8) is recorded as “dissolved very slowly with high turbidity”. Further, in series [2], the “molar mass by the MALS method” value is 6500. Moreover, the “colour change of Congo Red solution” value in series [3] is reported as “deep salmon-pink color”.
